What was measured:
Test in all cases: holdup assay
Set-up in all cases: key: below the threshold = too weak to quantify, mostly under pKd 3.1 to 4
[1] = molecular target: T1, APBA1_2, Q02410
T1 sequence (Q02410 742-832, limits assumed, looked up): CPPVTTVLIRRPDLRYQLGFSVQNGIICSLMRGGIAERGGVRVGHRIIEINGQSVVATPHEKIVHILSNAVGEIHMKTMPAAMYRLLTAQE

[2] = molecular target: T2, APBA2_1, Q99767
T2 sequence (Q99767 563-664, limits assumed, looked up): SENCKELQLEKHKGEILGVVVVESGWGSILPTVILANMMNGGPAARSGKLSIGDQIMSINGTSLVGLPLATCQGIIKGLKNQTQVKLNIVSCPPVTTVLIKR

[3] = molecular target: T3, ARHGAP21, Q5T5U3
T3 sequence (Q5T5U3 45-169, limits assumed, looked up): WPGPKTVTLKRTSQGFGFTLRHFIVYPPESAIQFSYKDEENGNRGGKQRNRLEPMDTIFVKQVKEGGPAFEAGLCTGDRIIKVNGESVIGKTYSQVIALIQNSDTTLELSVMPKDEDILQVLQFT

[4] = molecular target: T4, DFNB31_1, Q9P202
T4 sequence (Q9P202 135-233, limits assumed, looked up): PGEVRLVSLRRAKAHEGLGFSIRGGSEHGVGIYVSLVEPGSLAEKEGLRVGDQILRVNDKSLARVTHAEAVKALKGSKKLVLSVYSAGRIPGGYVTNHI

[5] = molecular target: T5, DFNB31_3, Q9P202
T5 sequence (Q9P202 811-907, limits assumed, looked up): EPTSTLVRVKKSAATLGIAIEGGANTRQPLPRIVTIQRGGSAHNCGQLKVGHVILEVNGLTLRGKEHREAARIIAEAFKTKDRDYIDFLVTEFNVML

[6] = molecular target: DLG4_3, P78352
Sequence of DLG4_3, P78352 (P78352 306-403): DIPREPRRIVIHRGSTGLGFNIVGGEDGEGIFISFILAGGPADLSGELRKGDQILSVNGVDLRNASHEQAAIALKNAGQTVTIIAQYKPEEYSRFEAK

[7] = molecular target: DLG5_1, Q8TDM6
Sequence of DLG5_1, Q8TDM6 (Q8TDM6 617-713): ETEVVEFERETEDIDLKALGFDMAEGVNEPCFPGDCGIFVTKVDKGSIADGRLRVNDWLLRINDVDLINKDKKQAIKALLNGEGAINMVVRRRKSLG

[8] = molecular target: GORASP2, Q9H8Y8
[9] = molecular target: T6, GRIP1_7, Q9Y3R0
T6 sequence (Q9Y3R0 999-1096, limits assumed, looked up): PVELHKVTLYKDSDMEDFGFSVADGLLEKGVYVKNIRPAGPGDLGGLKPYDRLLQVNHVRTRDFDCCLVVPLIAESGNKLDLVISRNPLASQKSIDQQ

[10] = molecular target: GRIP2_5, Q9C0E4
Sequence of GRIP2_5, Q9C0E4 (Q9C0E4 544-642): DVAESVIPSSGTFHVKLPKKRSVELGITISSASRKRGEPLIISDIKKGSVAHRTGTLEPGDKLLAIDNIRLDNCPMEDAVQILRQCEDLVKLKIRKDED

[11] = molecular target: GRIP2_7, Q9C0E4
Sequence of GRIP2_7, Q9C0E4 (Q9C0E4 934-1023): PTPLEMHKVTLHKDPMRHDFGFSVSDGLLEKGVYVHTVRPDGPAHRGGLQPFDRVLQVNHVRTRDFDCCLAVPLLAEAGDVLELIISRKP

[12] = molecular target: IL16_1, Q14005
Sequence of IL16_1, Q14005 (Q14005 210-306): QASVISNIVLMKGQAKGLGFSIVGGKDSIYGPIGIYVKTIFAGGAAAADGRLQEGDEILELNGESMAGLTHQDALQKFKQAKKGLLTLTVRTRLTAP

[13] = molecular target: IL16_3, Q14005
Sequence of IL16_3, Q14005 (Q14005 1107-1207): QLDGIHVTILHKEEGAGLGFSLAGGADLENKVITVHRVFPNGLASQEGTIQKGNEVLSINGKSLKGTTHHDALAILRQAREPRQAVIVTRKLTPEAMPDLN

[14] = molecular target: LDB3, O75112
Sequence of LDB3, O75112 (O75112 1-94): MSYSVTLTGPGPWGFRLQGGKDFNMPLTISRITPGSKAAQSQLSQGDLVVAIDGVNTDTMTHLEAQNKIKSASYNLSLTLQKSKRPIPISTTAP

[15] = molecular target: T7, LNX2_2, Q8N448
T7 sequence (Q8N448 334-432, limits assumed, looked up): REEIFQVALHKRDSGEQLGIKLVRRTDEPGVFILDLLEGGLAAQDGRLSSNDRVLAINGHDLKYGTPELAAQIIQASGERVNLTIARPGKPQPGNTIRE

[16] = molecular target: MAST2, Q6P0Q8
Sequence of MAST2, Q6P0Q8 (Q6P0Q8 1099-1202): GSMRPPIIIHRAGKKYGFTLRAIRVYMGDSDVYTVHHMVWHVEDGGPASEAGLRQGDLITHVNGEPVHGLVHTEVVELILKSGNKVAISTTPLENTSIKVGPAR

[17] = molecular target: T8, MPP2, Q14168
T8 sequence (Q14168 180-250, limits assumed, looked up): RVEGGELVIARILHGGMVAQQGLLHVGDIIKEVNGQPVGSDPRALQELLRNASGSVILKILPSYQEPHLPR

[18] = molecular target: T9, NHERF3_4, Q5T2W1
T9 sequence (Q5T2W1 373-468, limits assumed, looked up): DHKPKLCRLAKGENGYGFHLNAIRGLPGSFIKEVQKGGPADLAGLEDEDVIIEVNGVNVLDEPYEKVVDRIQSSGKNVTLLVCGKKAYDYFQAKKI

[19] = molecular target: T10, RADIL, Q96JH8
T10 sequence (Q96JH8 971-1071, limits assumed, looked up): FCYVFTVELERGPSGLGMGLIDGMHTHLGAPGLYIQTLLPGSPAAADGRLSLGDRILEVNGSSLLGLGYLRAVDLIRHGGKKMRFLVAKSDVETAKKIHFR

[20] = molecular target: SCRIB_1, Q14160
Sequence of SCRIB_1, Q14160 (Q14160 718-814): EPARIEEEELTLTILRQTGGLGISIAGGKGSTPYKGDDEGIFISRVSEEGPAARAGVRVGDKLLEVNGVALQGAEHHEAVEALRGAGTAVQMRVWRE

[21] = molecular target: SCRIB_2, Q14160
Sequence of SCRIB_2, Q14160 (Q14160 857-960): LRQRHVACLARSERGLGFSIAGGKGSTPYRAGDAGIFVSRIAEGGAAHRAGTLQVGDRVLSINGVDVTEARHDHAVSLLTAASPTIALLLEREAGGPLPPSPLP

[22] = molecular target: T11, SNTA1, Q13424
T11 sequence (Q13424 82-180, limits assumed, looked up): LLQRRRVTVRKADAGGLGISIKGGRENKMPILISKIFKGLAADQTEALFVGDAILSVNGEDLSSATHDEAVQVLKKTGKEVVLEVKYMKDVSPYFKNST

[23] = molecular target: T12, SNTG2, Q9NY99
T12 sequence (Q9NY99 68-166, limits assumed, looked up): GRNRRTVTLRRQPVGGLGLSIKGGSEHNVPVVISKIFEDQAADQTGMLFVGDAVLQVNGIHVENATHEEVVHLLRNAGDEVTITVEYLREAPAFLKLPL

[24] = molecular target: T13, TIAM2, Q8IVF5
T13 sequence (Q8IVF5 885-986, limits assumed, looked up): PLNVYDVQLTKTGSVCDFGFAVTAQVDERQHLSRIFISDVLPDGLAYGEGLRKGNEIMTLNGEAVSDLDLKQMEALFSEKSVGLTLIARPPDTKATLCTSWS

[25] = molecular target: TJP1_3, Q07157
Sequence of TJP1_3, Q07157 (Q07157 416-512): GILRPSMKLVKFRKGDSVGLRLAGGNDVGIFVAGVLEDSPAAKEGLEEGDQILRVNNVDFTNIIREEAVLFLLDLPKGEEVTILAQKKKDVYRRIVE

[26] = plain residues with an end cap or a label only (N-terminal biotin on a linker: gsgsgs; C-terminal amide)
[27] = plain residues with an end cap or a label only (N-terminal biotin on a linker: ttds)

TLSLTDSSVDGIPPYR [AXIN1_int, O15169]
pKd [1, 26]: below the threshold
pKd [2, 26]: below the threshold
pKd [3, 26]: below the threshold
pKd [4, 26]: below the threshold
pKd [5, 26]: 3.91
pKd [6, 26]: below the threshold
pKd [7, 26]: below the threshold
pKd [8, 26]: below the threshold
pKd [9, 26]: below the threshold
pKd [10, 26]: below the threshold
pKd [11, 26]: below the threshold
pKd [12, 26]: 3.48
pKd [13, 26]: below the threshold
pKd [14, 26]: below the threshold
pKd [15, 26]: below the threshold
pKd [16, 26]: below the threshold
pKd [17, 26]: below the threshold
pKd [18, 26]: below the threshold
pKd [19, 26]: below the threshold
pKd [20, 26]: below the threshold
pKd [21, 26]: below the threshold
pKd [22, 26]: below the threshold
pKd [23, 26]: below the threshold
pKd [24, 26]: 3.9
pKd [25, 26]: below the threshold

PKTPPTDTSV [KIR3DL3, Q8N743]
pKd [1, 27]: 3.74
pKd [2, 27]: below the threshold
pKd [3, 27]: 3.61
pKd [4, 27]: 3.69
pKd [5, 27]: below the threshold
pKd [6, 27]: below the threshold
pKd [7, 27]: below the threshold
pKd [8, 27]: 4.04
pKd [9, 27]: below the threshold
pKd [10, 27]: below the threshold
pKd [11, 27]: below the threshold
pKd [12, 27]: below the threshold
pKd [13, 27]: below the threshold
pKd [14, 27]: below the threshold
pKd [15, 27]: below the threshold
pKd [16, 27]: 4.7
pKd [17, 27]: below the threshold
pKd [18, 27]: below the threshold
pKd [19, 27]: below the threshold
pKd [20, 27]: 3.69
pKd [21, 27]: 4.08
pKd [22, 27]: below the threshold
pKd [23, 27]: 3.73
pKd [24, 27]: below the threshold
pKd [25, 27]: below the threshold

VLRLQSETSV [VANGL1, Q8TAA9]
pKd [1, 27]: 3.6
pKd [2, 27]: below the threshold
pKd [3, 27]: below the threshold
pKd [4, 27]: 4.03
pKd [5, 27]: below the threshold
pKd [6, 27]: 4.51
pKd [7, 27]: below the threshold
pKd [8, 27]: below the threshold
pKd [9, 27]: 3.73
pKd [10, 27]: below the threshold
pKd [11, 27]: below the threshold
pKd [12, 27]: 3.7
pKd [13, 27]: below the threshold
pKd [14, 27]: below the threshold
pKd [15, 27]: 4.15
pKd [16, 27]: 5.56
pKd [17, 27]: below the threshold
pKd [18, 27]: below the threshold
pKd [19, 27]: below the threshold
pKd [20, 27]: 5.53
pKd [21, 27]: 4.72
pKd [22, 27]: 4.52
pKd [23, 27]: 4.53
pKd [24, 27]: below the threshold
pKd [25, 27]: below the threshold

TVASEKESVM [SLC1A5, Q15758]
pKd [1, 27]: below the threshold
pKd [2, 27]: below the threshold
pKd [3, 27]: below the threshold
pKd [4, 27]: 3.65
pKd [5, 27]: below the threshold
pKd [6, 27]: below the threshold
pKd [7, 27]: below the threshold
pKd [8, 27]: below the threshold
pKd [9, 27]: 3.67
pKd [10, 27]: below the threshold
pKd [11, 27]: below the threshold
pKd [12, 27]: below the threshold
pKd [13, 27]: below the threshold
pKd [14, 27]: below the threshold
pKd [15, 27]: below the threshold
pKd [16, 27]: 4.61
pKd [17, 27]: below the threshold
pKd [18, 27]: below the threshold
pKd [19, 27]: below the threshold
pKd [20, 27]: 5.2
pKd [21, 27]: below the threshold
pKd [22, 27]: 3.81
pKd [23, 27]: 3.75
pKd [24, 27]: below the threshold
pKd [25, 27]: below the threshold

SSRTRRETQL [HPV16-E6, P03126]
pKd [1, 27]: below the threshold
pKd [2, 27]: below the threshold
pKd [3, 27]: below the threshold
pKd [4, 27]: 3.53
pKd [5, 27]: below the threshold
pKd [6, 27]: 5.06
pKd [7, 27]: below the threshold
pKd [8, 27]: 4.02
pKd [9, 27]: below the threshold
pKd [10, 27]: below the threshold
pKd [11, 27]: below the threshold
pKd [12, 27]: below the threshold
pKd [13, 27]: below the threshold
pKd [14, 27]: below the threshold
pKd [15, 27]: below the threshold
pKd [16, 27]: 5.66
pKd [17, 27]: below the threshold
pKd [18, 27]: 3.89
pKd [19, 27]: 3.65
pKd [20, 27]: 5.42
pKd [21, 27]: 4.21
pKd [22, 27]: 4.75
pKd [23, 27]: 4.45
pKd [24, 27]: below the threshold
pKd [25, 27]: below the threshold

IYVPEAQTRL [DLGAP4, Q9Y2H0]
pKd [1, 27]: 3.64
pKd [2, 27]: below the threshold
pKd [3, 27]: below the threshold
pKd [4, 27]: 3.96
pKd [5, 27]: below the threshold
pKd [6, 27]: below the threshold
pKd [7, 27]: below the threshold
pKd [8, 27]: below the threshold
pKd [9, 27]: 3.77
pKd [10, 27]: below the threshold
pKd [11, 27]: below the threshold
pKd [12, 27]: below the threshold
pKd [13, 27]: below the threshold
pKd [14, 27]: below the threshold
pKd [15, 27]: below the threshold
pKd [16, 27]: 6.16
pKd [17, 27]: below the threshold
pKd [18, 27]: 3.87
pKd [19, 27]: below the threshold
pKd [20, 27]: 5.3
pKd [21, 27]: below the threshold
pKd [22, 27]: 3.98
pKd [23, 27]: 4.67
pKd [24, 27]: below the threshold
pKd [25, 27]: below the threshold

— PMC9482650, “Quantitative fragmentomics allow affinity mapping of interactomes” (Nature Communications, 2022)
